Assay [1] has as its target BTN3A1 B30.2 domain (human, UniProt O00481 328-513). Nature of the assay: ITC; with HMBPP. (In general: ITC needs no label: the signal is the heat of the interaction.)
Assay [2] deals with BTN3A1 B30.2 (Homo sapiens, UniProt O00481). Description: ITC.
For assay [3], the target named is BTN3A3 B30.2 (Homo sapiens, UniProt O00478). Description: ITC.
BTN3A3 B30.2, sequence (O00478 319-521): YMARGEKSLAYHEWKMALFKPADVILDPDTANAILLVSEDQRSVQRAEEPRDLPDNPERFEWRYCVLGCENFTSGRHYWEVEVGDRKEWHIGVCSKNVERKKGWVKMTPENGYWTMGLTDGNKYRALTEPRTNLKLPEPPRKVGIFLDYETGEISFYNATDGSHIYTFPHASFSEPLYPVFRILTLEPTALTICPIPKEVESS

BTN3A1 B30.2, sequence (O00481 319-513): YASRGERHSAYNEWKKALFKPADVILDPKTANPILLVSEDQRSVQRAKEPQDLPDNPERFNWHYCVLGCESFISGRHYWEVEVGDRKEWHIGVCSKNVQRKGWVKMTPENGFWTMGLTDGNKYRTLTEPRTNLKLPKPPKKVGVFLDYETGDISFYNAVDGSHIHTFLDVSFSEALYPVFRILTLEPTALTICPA
BTN3A1 B30.2 domain, sequence (O00481 other isoform, or with tags, fused parts or gaps): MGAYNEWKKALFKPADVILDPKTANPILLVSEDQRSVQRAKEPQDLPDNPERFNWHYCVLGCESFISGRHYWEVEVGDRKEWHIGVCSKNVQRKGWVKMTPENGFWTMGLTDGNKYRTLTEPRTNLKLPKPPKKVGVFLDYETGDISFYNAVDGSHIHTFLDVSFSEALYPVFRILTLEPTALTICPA

B1: BTN2A1 B30.2 domain (domain or fragment)
chain: EELRWRRTFLHAVDVVLDPDTAHPDLFLSEDRRSVRRCPFRHLGESVPDNPERFDSQPCVLGRESFASGKHYWEVEVENVIEWTVGVCRDSVERKGEVLLIPQNGFWTLEMHKGQYRAVSSPDRILPLKESLCRVGVFLDYEAGDVSFYNMRDRSHIYTCPRSAFSVPVRPFFRLGCEDSPIFICPALTGANGVTVPEEGLTLHRVGTHQSL
modifications: limits from PDB 5ZXK/8JYE entity without the C-terminal LEHHHHHH; paper number minus 295 = entity position
B1 had a Kd in assay [1] of 600 nM.

B2: BTN2A1 B30.2 (protein)
chain: ELQVKEKLQEELRWRRTFLHAVDVVLDPDTAHPDLFLSEDRRSVRRCPFRHLGESVPDNPERFDSQPCVLGRESFASGKHYWEVEVENVIEWTVGVCRDSVERKGEVLLIPQNGFWTLEMHKGQYRAVSSPDRILPLKESLCRVGVFLDYEAGDVSFYNMRDRSHIYTCPRSAFSVPVRPFFRLGCEDSPIFICPALTGANGV
modifications: DMAPP
B2 yielded a Kd in assay [2] of 12300 nM.

B3: BTN2A1 B30.2 (protein)
chain: ELQVKEKLQEELRWRRTFLHAVDVVLDPDTAHPDLFLSEDRRSVRRCPFRHLGESVPDNPERFDSQPCVLGRESFASGKHYWEVEVENVIEWTVGVCRDSVERKGEVLLIPQNGFWTLEMHKGQYRAVSSPDRILPLKESLCRVGVFLDYEAGDVSFYNMRDRSHIYTCPRSAFSVPVRPFFRLGCEDSPIFICPALTGANGV
modifications: IPP
Regarding B3, the Kd in assay [2] came to 155000 nM.

B4: BTN2A1 B30.2 (protein)
chain: ELQVKEKLQEELRWRRTFLHAVDVVLDPDTAHPDLFLSEDRRSVRRCPFRHLGESVPDNPERFDSQPCVLGRESFASGKHYWEVEVENVIEWTVGVCRDSVERKGEVLLIPQNGFWTLEMHKGQYRAVSSPDRILPLKESLCRVGVFLDYEAGDVSFYNMRDRSHIYTCPRSAFSVPVRPFFRLGCEDSPIFICPALTGANGV
modifications: HMBPP
Consider B4, for which the Kd in assay [2] stood at 611 nM.

B5: BTN2A1 B30.2 (protein)
chain: ELQVKEKLQEELRWRRTFLHAVDVVLDPDTAHPDLFLSEDRRSVHRCPFRHLGESVPDNPERFDSQPCVLGRESFASGKHYWEVEVENVIEWTVGVCRDSVERKGEVLLIPQNGFWTLEMHKGQYRAVSSPDRILPLKESLCRVGVFLDYEAGDVSFYNMRDRSHIYTCPRSAFSVPVRPFFRLGCEDSPIFICPALTGANGV
In the case of B5, in assay [3], the Kd was determined as 460 nM.

As a reminder, the Kd is the equilibrium constant for the complex coming apart. Read a low Kd as higher affinity.

The values are drawn from paper PMC10533412 (2023).
